Measured values published in the RNAGym collection of RNA variant scans (doi:10.1073/pnas.2313332121).

B1: TPR t1 (parent)
chain: GACCAAUCUGCCCUCAGAGCUCGAGAACAUCUUCGGAUGCAGAGGAGGCAGGCUUCGGUGGCGCGAUAGCGCCAACGUCCUCAACCUCCAAUGCAUCCCACCACAUGAUGAUGCCUGAAGAGCCUUGGUUUUUUG

Variants of: B1
Assay: polymerase ribozyme fitness, log enrichment relative to wild type (log ratio); higher = more active; in vitro selection for triplet polymerase activity
Outline: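 PCR was used to build mutant libraries for each subunit of a heterodimeric triplet polymerase ribozyme, which were then transcribed. A single in vitro selection round, in triplicate, used a frozen incubation at −7 °C and recovered extended constructs by gel excision, streptavidin beads and RT-PCR. Fitness is the logarithm of genotype enrichment relative to wild-type enrichment, averaged over replicates with inverse-variance weights. The logarithm is base 2, and after Illumina sequencing only genotypes with ≥10 input reads and ≥1 read per output were kept.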

Row | Variant | polymerase ribozyme fitness (log ratio)
1 | U9G A37C G44U | -1.47
2 | U9A C73A A95G C104A G110U | -3.62
3 | U9G C73A | -0.668
4 | U9A G17U A74C C82A U87C | -0.851
5 | U9C C73U | 0.362
6 | U9C G58C C114A G127U | -3.7
7 | U9C C22G C31G U38G A121U | -6.73
8 | U9G A43G C49A U81A G127U U133G | -2.11
9 | U9C U55G G69A | -1.8
10 | U9G C11A U78C | -0.41
11 | U9G C62U A74U | -0.576
12 | U9A G52A C56A | -1.03
13 | U9C C56G C62U | 0.103
14 | U9C C11G G36U U116A C123G | -1.92
15 | U9G A27G G60A A66C U78G G113U | -6.12
16 | U9C C34U G69U C72U C101A G117A U125A U130G | -6.7
17 | U9C C56A A83C | 0.00737
18 | U9G C72U | 0.16
19 | U9G C80U U106C | 0.49
20 | U9C C104U G122A | 0.29
21 | U9A C70U C88A C101U U132A | -0.202
22 | U9A G69C G113C C115U | -4.52
23 | U9G C53G C115A G127U | -0.417
24 | U9G C11A G39C C72G G77C A118U | -2.83

Row | Variant | polymerase ribozyme fitness (log ratio)
25 | U9G A37U C40U G45A C104U | -0.895
26 | U9G C56G G61U G93C | -3.2
27 | U9G C11A A18G A41U U78G | -4.42
28 | U9A U116C U125A | 0.151
29 | U9A G48U C64U C72A | 0.0767
30 | U9C A90C | -0.197
31 | U9C G61A C89U A105C | -3.08
32 | U9A C98G | -5.74
33 | U9G C28U G117C U131G | -4.94
34 | U9C A27C | -2.15
35 | U9C G69A | -2.17
36 | U9C G69U | 1.23
37 | U9G C11U A27G G47C U78C C86U | -2.22
38 | U9G C13A G110A | -1.62
39 | U9C C12U G39U C70A A111U C124A | -5.75
40 | U9A C49U | -0.088
41 | U9A C12U A27C C53U | -2.63
42 | U9A C13A C22G G48C G71A | -5.83
43 | U9C G36U G63C U112C G128C | -1.66
44 | U9A G52U C72A C88U C124A | 1.2
45 | U9A U78A G93C C124G G128C | -2.15
46 | U9C A37C C114G G117U | -3.29
47 | U9G C40U U54A C85A | -1.24
48 | U9C C99A C101U U132C | -6.34

Row | Variant | polymerase ribozyme fitness (log ratio)
49 | U9C G60U C82U U96C | 0.305
50 | U9A C40G G42U | -1.9
51 | U9C C86A C99A | -5.49
52 | U9A C56A G61C G77U G117U | -2.13
53 | U9G A121G U131A | 1.98
54 | U9C A41G C64U C86A | -0.494
55 | U9C C73U C85U G120C | 1.44
56 | U9A G51U G52U U116A | -3.29
57 | U9G A46G C73U A75G U96A U106G | -3.78
58 | U9G C11G C94U A111C | -4.33
59 | U9C U116C U129A | -0.962
60 | U9A G127U | 0.46
61 | U9C A26G C72G C79U | -0.65
62 | U9C C73A A74U | 0.19
63 | U9A C62A C86A C98U | -2.77
64 | U9C G69U A83U | -0.05
65 | U9C A119U C123U | 2.07
66 | U9C A37U G63A C80U C82G C85G | -2.21
67 | U9C C99U | -1.75
68 | U9A G71A | 0.174
69 | U9G A41U G71A U81C U96A | -5.71
70 | U9C C70U C102G | -6.28
71 | U9C G48U C123U | 1.12
72 | U9A C72U | 0.716

Row | Variant | polymerase ribozyme fitness (log ratio)
73 | U9C G69U U78G A103U | -1.88
74 | U9C C13A A50G C72U A84U C89A C98U C102A | -6.4
75 | U9A G110U G117A | -2.51
76 | U9G C13A C28U G47U C86G | -1.92
77 | U9C C13A A27U G44C G48U C62U U112A | -2.71
78 | U9A G77U U131A | 0.362
79 | U9A U96A C124U | 1.28
80 | U9A C13U C64G | -5.17
81 | U9A C15A C56G C70U C76U G120C G122U U129C | -6.98
82 | U9A G42A U129A | -2.88
83 | U9C G36U G47U | -2.03
84 | U9G C12G A91C G127C U129A | -2.32
85 | U9G A29G G42U | -2.93
86 | U9A G39U G48A U109A | -6.15
87 | U9A C40G G71U | -0.173
88 | U9G A43U G52U C72A C82A | -2.31
89 | U9C G44U G63A C89G U109A | -7.22
90 | U9A G47A U96G | -0.976
91 | U9A G110U | -0.815
92 | U9A C40G G113A | -0.901
93 | U9C G69U C72G | -1.2
94 | U9C G61A | 0.487
95 | U9C C20G C101U G113U | -0.203
96 | U9A C89G | -2.53

Row | Variant | polymerase ribozyme fitness (log ratio)
97 | U9G A26C A37G A111U U131C | -5.09
98 | U9G A100U G128A | -1.71
99 | U9C G63A A74C C89A C104A U112C | -5.39
100 | U9C C70G | -1.43
101 | U9A C20G C64A U112A G128A | -5.8
102 | U9G C12G G60U | 0.216
103 | U9G C31G U87A C114A | -5.66
104 | U9C G63C U96G C97A C123A | -3.72
105 | U9G A26C | -4.47
106 | U9G A46U G60U A91C G117A | -0.876
107 | U9C C12A | 0.347
108 | U9A C12U A37G | -0.0422
109 | U9G A16U G19U A37G A43U G69U C101A | -4.92
110 | U9C C40U C62G G117C | -5.48
111 | U9G A103U | -4.16
112 | U9C C15G U78G U96C C124U | -0.775
113 | U9G A121U C123U | 2.06
114 | U9C G10C C62G C72A A111G U125C | -4.6
115 | U9C A26U G57C A84U | -3.11
116 | U9C C40U A43G C49G U96G A119G U131A | -3.12
117 | U9C U14A G36C | -1.95
118 | U9C G39A G63U | -1.02
119 | U9G A66C C104U | -0.809
120 | U9G A41U G61U U87A G110A | -3.56

Row | Variant | polymerase ribozyme fitness (log ratio)
121 | U9A G42A A43G G47U C56U | -3.28
122 | U9C C40G G63U G69U C79G C82U A118U A119G G135U | -4.3
123 | U9C A16U G63C | 0.269
124 | U9C A26G A27U U54A C82G | -5.13
125 | U9C G45A G48U | -0.16
126 | U9A U38A U54A U96A U133G | -1.53
127 | U9G A16C A68U U109A | -6.08
128 | U9A C31G G61U A83C G107C | -1.25
129 | U9G | 0.36
130 | U9C | 0.614
131 | U9C G60U | 0.0949
132 | U9C C22U G58A G61C C114A | -4.7
133 | U9G C40G C53G U130G | -1.2
134 | U9A G65C A111U C123U G128A U133C | -4.71
135 | U9C A37U | 0.172
136 | U9A G48U A50U G60A C86G | -1.49
137 | U9C C15U G42C | -0.305
138 | U9C U78G A103U | -5.95
139 | U9A G51C C86G U87A | -5.3
140 | U9C A50U G52C | -2.28
141 | U9A G39A | 0.185
142 | U9A C104A | -0.737
143 | U9C C11U G60C G71U U133A | -4.61
144 | U9A U14G A41C G42U G60U G93U A121C | 0.0286

Row | Variant | polymerase ribozyme fitness (log ratio)
145 | U9A C49U G110A | -1.43
146 | U9G C13A | -0.971
147 | U9G C53A G71U C86U A100U G110U | -4.22
148 | U9A C53U C123G | 1.66
149 | U9G A26G G45U C73U C99U U112A | -4.85
150 | U9G A27C C114A | -3.98
151 | U9A U21A G45C C70A C82U U116G U132C G135C | -1.83
152 | U9G C80A | -2.27
153 | U9G C13A C22G G48A | -3.85
154 | U9C C72A C76U G77U | -2.24
155 | U9A G39U G45U | -0.618
156 | U9A C13A | 0.483
157 | U9A C13U | 0.446
158 | U9A U106A | 0.641
159 | U9A C53A U87G | 0.985
160 | U9A C53A C86U | 0.27
161 | U9G C12G C53A C99U C102U | -5.32
162 | U9C U92A | -1.27
163 | U9A C88U U92A | -2.44
164 | U9A C98A C104U | -3.44
165 | U9A C12U G61C | -1.89
166 | U9G C53A | 0.283
167 | U9A G19C C40G A43U G60U | -3.06
